Data reported in patent US20260042848A1.

Biological target: native human AXL on non-transfected human cell lines (A-431, A-549, HeLa, MDA-MB-231, NCI-H1299) (human) (UniProt P30530)
Experiment: cell-based or functional assay

native human AXL on non-transfected human cell lines (A-431, A-549, HeLa, MDA-MB-231, NCI-H1299) (human), sequence (P30530 26-894 limits assumed): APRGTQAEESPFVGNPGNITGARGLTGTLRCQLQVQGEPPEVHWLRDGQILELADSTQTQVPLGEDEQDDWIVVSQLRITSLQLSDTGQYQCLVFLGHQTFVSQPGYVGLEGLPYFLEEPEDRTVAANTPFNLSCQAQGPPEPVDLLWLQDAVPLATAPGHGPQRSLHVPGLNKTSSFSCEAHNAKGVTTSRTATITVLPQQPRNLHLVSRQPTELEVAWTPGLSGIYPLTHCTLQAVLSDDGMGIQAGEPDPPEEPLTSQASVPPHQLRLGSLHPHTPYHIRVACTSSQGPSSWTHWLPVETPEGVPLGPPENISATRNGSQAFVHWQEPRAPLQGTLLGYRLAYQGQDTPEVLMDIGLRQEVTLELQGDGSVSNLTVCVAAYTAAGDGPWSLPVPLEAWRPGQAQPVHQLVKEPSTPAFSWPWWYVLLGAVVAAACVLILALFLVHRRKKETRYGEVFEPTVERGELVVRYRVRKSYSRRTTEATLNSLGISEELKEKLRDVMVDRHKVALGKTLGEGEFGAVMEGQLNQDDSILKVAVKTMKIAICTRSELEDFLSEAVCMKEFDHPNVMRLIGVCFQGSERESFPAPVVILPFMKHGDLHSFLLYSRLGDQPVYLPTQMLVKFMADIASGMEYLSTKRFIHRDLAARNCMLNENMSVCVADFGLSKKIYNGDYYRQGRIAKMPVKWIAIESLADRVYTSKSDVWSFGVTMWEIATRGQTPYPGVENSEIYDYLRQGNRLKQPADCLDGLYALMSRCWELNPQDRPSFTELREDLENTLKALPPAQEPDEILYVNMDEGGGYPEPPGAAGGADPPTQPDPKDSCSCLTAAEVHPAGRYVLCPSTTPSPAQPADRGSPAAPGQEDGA

Substance: isotype control (Example 5) (antibody)
- AKT phosphorylation in H1299 cells without Gas6; APC-A Geometric mean; p-AKT APC + isotype control: 4380
- AKT phosphorylation in H1299 cells without Gas6; Median: APC-A; p-AKT APC + isotype control: 4430
- ERK phosphorylation in H1299 cells without Gas6; APC-A Geometric mean; p-ERK A647 + isotype control: 965
- ERK phosphorylation in H1299 cells without Gas6; Median: APC-A; p-ERK A647 + isotype control: 274
- Gas6 induced AKT phosphorylation in H1299 cells; APC-A Geometric mean; p-AKT APC + isotype control + Gas6: 8380
- Gas6 induced AKT phosphorylation in H1299 cells; Median: APC-A; p-AKT APC + isotype control + Gas6: 9120
- Gas6 induced ERK phosphorylation in H1299 cells; APC-A Geometric mean; p-ERK A647 + isotype control + Gas6: 1320
- Gas6 induced ERK phosphorylation in H1299 cells; Median: APC-A; p-ERK A647 + isotype control + Gas6: 1020
